Values belong to the binder of their own block, whether it stands above or below them.
How the values were obtained:
[1] = target: T1, Human VEGF-121 (Acro Biosystems) (human, UniProt P15692 207-395); test: competitive ELISA: inhibition of 0.5 nM human VEGF-121 binding to coated VEGFR1 (FIG. 5)
T1 construct: Bought protein; also called human VEGFA
T1 sequence: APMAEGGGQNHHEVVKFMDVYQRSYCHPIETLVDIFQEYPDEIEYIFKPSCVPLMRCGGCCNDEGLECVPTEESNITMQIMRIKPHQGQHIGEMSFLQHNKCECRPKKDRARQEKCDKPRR
Protocol: (§1) To perform the competitive ELISA, the VEGFR1 was immobilized at a concentration of 2 μg/mL onto a Maxisorp 96-well plate (Thermo Scientific) overnight at 4° C., washed three times with PBS and blocked for 1 h at RT with ELISA Block Buffer (EBB: 0.2% BSA in PBST). […] The samples were incubated for 2 h at RT, and 50 μL transferred onto the VEGFR1-coated plate. After 2 h incubation, the plate was washed 3 times with PBST. 50 μL of streptavidin-HRP conjugate (Thermo Scientific) was added at a 1:5,000 dilution in EBB, and incubated for 1 h at RT. The plate was washed 5 times with PBST, and developed with 50 μL 3,3′,5,5′-Tetramethylbenzidine (TMB) substrate (GeneTex). After 5-15 min, the reactions were stopped by adding 50 μL of 2M H₂SO₄, and signal was measured at an absorbance of 450 nm.

[2] = target: T2, Biotinylated human VEGF-165 (Acro Biosystem) (human, UniProt P15692 207-395, biotinylated (site not stated)); test: BLI, biotinylated VEGF on streptavidin tips, 1:1 global fit
T2 construct: Bought protein; also called human VEGFA
Protocol: (§2) Binding characterization was performed using BLI (Satorius) at RT with a 1000 rpm flow-rate. Biotinylated human VEGF-165 (Acro Biosystem) was immobilized onto Streptavidin-coated tips at a concentration of 3 μg/mL for 60 sec in BLI buffer (0.1% BSA and 0.01% Tween-20 in PBS). After a 30 sec baseline, anti-VEGFA DotBodies were associated at 8 different concentrations, including a blank reference, in BLI buffer for 60 sec, followed by a 400 sec dissociation in BLI buffer. The background buffer signal was subtracted using the 0 nM concentration reference, and the kinetics of binding were calculated using a global fit following a 1:1 binding model, using BLI Analysis Software. The bivalent molecule 16A2.1×2 was also characterized as described here, but with a 600 sec dissociation. To characterize the binding of all the clones against murine VEGFA, the same procedure was employed, but the immobilized target was replaced with biotinylated murine VEGF-164 (Acro Biosystem).

[3] = target: T3, biotinylated murine VEGF-164 (Acro Biosystem) (mouse, UniProt Q00731-2 27-190, biotinylated (site not stated)); test: as above
T3 construct: also called Mouse VEGF164; murine VEGFA
T3 sequence (looked up): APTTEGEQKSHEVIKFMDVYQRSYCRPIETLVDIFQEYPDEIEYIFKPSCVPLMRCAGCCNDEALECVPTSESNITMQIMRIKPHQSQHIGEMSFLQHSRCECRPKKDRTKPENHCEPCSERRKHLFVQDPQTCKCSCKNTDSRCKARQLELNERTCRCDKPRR
Protocol: as §2

VEGFA = VEGFA (UniProt P15692-4 27-191, limits assumed); test: method not stated
[4] = target: T1, Human VEGF-121 (Acro Biosystems); test: competitive ELISA: inhibition of 0.5 nM human VEGF-121 binding to coated VEGFR1 (FIG. 4)
Protocol: as §1

IC50 [1]: 1.8 nM
Kd [2]: 3 nM
koff [2]: 0.00032 s⁻¹
kon [2]: 106000 M⁻¹ s⁻¹
Kd [3]: 14.6 nM
koff [3]: 0.00173 s⁻¹
kon [3]: 118000 M⁻¹ s⁻¹
Kd (VEGFA): < 5 nM
IC50 [4]: 2.3 nM
B1: anti-VEGFA DotBody 16C2.1 (VHH)
VHH: EVQLVESGGGLVQPGGSLRLSCAISGFSLAATDIDWVRQAPGKGLEWVARIFSPSDFTDYADSVKGRFTISADTSKNTVYLQMNSLRAEDTAVYYCGRPDTYAYNIFLDTPTYNALHYRGQGTLVTVSS
notes: Humanized, stabilized autonomous VH domain (single domain antibody, 'DotBody') derived from the trastuzumab VH

IC50 [1]: 12.8 nM
Kd [2]: 3.37 nM
koff [2]: 0.000363 s⁻¹
kon [2]: 105000 M⁻¹ s⁻¹
Kd [3]: 15.3 nM
koff [3]: 0.00128 s⁻¹
kon [3]: 83600 M⁻¹ s⁻¹
B2: anti-VEGFA DotBody 21A5.1 (VHH)
VHH: EVQLVESGGGLVQPGGSLRLSCAISGFSLVETDIDWVRQAPGKGLEWVARIFLPSGSTYYADSVKGRFTISADTSKNTVYLQMNSLRAEDTAVYYCGSPDTYAYNIFLDTPAYKGLSYRGQGTLVTVSS

— patent publication US20240132579A1 (DOTBIO PTE, published 2024)
